A short description of this data set: yeast display, Sf9 membrane polyspecificity reagent, FACS + sequencing; frameworks hold sequencing errors. The method, boiled down: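 A synthetic nanobody library was expressed on Saccharomyces cerevisiae BJ5465 by galactose induction for 36–48 hours. The library was stained for 1 hour at 4 °C with 10% biotinylated, detergent-solubilized Sf9 membrane reagent and enriched with streptavidin microbeads before FACS. Low and high (top ~1%) gates were set on anti-HA fluorescence for expression and streptavidin fluorescence for reagent binding, and each polyreactivity label reflects the gate of origin.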
Take “QVQLVESGGGLVQAGGSLRLSCAASGLTFDYYAMGWYRQAPGKERELVAAITRRGGGTYYADSVKGRFTISRDNAKNTVYLQMNSLKPEDTAVYYCNADRRSWSALHRYDYWGQGTQVTVSS”: the “polyreactivity (PSR sort gate)” value was “high polyreactivity”.

On to “QVQLVESGGGLVQAGGSLRLSCAASGLTFDYYAMGWYRQAPGKERELVAAITSSGGRTYYADSVKGRFTISRDNPNKTVYLQMNSLKPEDTAVYYCAADPYSVYGGDYWGQGTQVTVSS”, for which the “polyreactivity (PSR sort gate)” value is “low polyreactivity”.

On to “QVQLVESGGGLVQAGGSLRLSCAASGLTFEKYAMGWYRQAPGKEREMVAAISQDGGSTYYADSVKGRFTISRDNAKNTVYLQMNSLKPEDTAVYYCAAEDPDSWLPWDLFYYWGQGTQVTVSS”, for which the “polyreactivity (PSR sort gate)” value is recorded as “low polyreactivity”.

Regarding “QVQLVESGGGLVQAGGSLRLSCAASGLTFELYAMGWYRQAPGKERELVAAITWSGGRTYYADSVKGRFTISRDNAKNTVYLQMNSLKPEDTAVYYCAADVYPGYVGSQEYDYWGQGTQVTVSS”, the “polyreactivity (PSR sort gate)” value is reported as “low polyreactivity”.

Take “QVQLVESGGGLVQAGGSLRLSCAASGLTFEVYAMGWYRQAPGKERELVAAISSGGGSTYYADSVKGRFTISRDNAKYTVYLQMNSLKPEDSAVYYCNAVAKLYYWRYDYWGQGTQVTVSS”: the “polyreactivity (PSR sort gate)” value was “low polyreactivity”.

“QVQLVESGGGLVQAGGSLRLSCAASGLTFEYYAMGWYRQAPGKERELVAAITSTGSTNYADSVKGRFTISRDNAKNTVYLQMNSLKPEDTAVYFCNAEKPEGSTLYDYDYWGQGTQVTVSS”: the “polyreactivity (PSR sort gate)” value was “low polyreactivity”.

As to “QVQLVESGGGLVQAGGSLRLSCAASGLTFEYYTMGWYRQAPGIERELVAAITSSGGSTYYADSVKGRFTISRDNAKNTVYLQMISLKPEDTAVYYCNAYWTYEFPSYEYWGQGTQVTVSS”, the “polyreactivity (PSR sort gate)” value is reported as “low polyreactivity”.

As to “QVQLVESGGGLVQAGGSLRLSCAASGLTFEYYTMGWYRQAPGKERELVAAITSSGGSTYYADSVKGRFTISRDNAKNTVYLQMNSLKPEDTAVYYCAARWRHYFVWKSYDYWGQGTQVTVSS”, the “polyreactivity (PSR sort gate)” value is “low polyreactivity”.

Regarding “QVQLVESGGGLVQAGGSLRLSCAASGLTFEYYTMGWYRQAPGKERELVAAITSSGGSTYYADSVKGRFTISRDNAKNTVYLQMNSLKPEDTAVYYCNAYWTYEFPSYDYWGQGTQVTVSS”, the “polyreactivity (PSR sort gate)” value is “low polyreactivity”.

In the case of “QVQLVESGGGLVQAGGSLRLSCAASGLTFFAYPMGWYRQAPGKERELVAVITSSGGSTNYADSVKGRFTISRDTPKNTVYLQMNSLKPEDTAVYYCAAYIRYTLPTSRGFGYWGQGTQVTVSS”, the “polyreactivity (PSR sort gate)” value was “high polyreactivity”.

Regarding “QVQLVESGGGLVQAGGSLRLSCAASGLTFFKYTMGWYRQAPGKERELVAAISSSGGSTRYADSVKGRFTISRDNAKNTVYLQMNSLKPEDTAVYYCAKRGYTSSRRWIYDYWGQGTQVTVSS”, the “polyreactivity (PSR sort gate)” value is reported as “high polyreactivity”.

Regarding “QVQLVESGGGLVQAGGSLRLSCAASGLTFFKYTMGWYRQPPGKERELVSAINGGGSTNYADSVKGRFSISRDNAKNTVYLQMNSLKPEDTAVYYCAAGLQYGYDYWGQGTQVTVSS”, the “polyreactivity (PSR sort gate)” value is reported as “low polyreactivity”.

For the sequence “QVQLVESGGGLVQAGGSLRLSCAASGLTFGFYAMGWYRQAPGKERELVAGISNGGSTNYADSVKARFTISRDNAKNTVYLQMNSLKPEDTAVFYCAAQGEYGFTAYYPGDSWGQGTQVTVSS”, the “polyreactivity (PSR sort gate)” value is “low polyreactivity”.

Consider “QVQLVESGGGLVQAGGSLRLSCAASGLTFGGNAMGWYRQAPGKERELVAAISGSGGRTYYADSVKGRFTISRDNEKNTVYLQMNSLKPEDTAVYYCNAATNRRTSDYWGQGTQVTVSS”, for which the “polyreactivity (PSR sort gate)” value was “high polyreactivity”.

For “QVQLVESGGGLVQAGGSLRLSCAASGLTFGGSAMGWYRQAPGKERELVAGISSSGNTNYADSVKGRFTISRDNAKNTVYLQMISLKPEDTAVYYCAADENITYPVYDMYYWGQGTQVTVSS”, the “polyreactivity (PSR sort gate)” value is given as “low polyreactivity”.

For “QVQLVESGGGLVQAGGSLRLSCAASGLTFGNYSKGWYRQAPGKERELVAAISKRGGTTYYADSVKGRFTISRDNAKNTVYLQMNSLKPEDTAVYYCAAQVGRGYEVYPVYKYGYWGQGTQVTVSS”, the “polyreactivity (PSR sort gate)” value is “high polyreactivity”.

Turning to “QVQLVESGGGLVQAGGSLRLSCAASGLTFGRYAMGWYRQAPGKERELVAVINRGGNTYYADSVKGRFTISRDNAKNTVYLQMNSLKPEDTAVYYCAADYLRWAGRYFSWDYDYWGQGTQVTVSS”, the “polyreactivity (PSR sort gate)” value is “high polyreactivity”.

With “QVQLVESGGGLVQAGGSLRLSCAASGLTFGRYTMGWYRQAPGKERELVAAISYSGGSTYYADSVKGRFTISRDNAKNTVYLQMNSLKPEDTAVYYCAKRWTGLGGYYYWGQGTQVTVSS”, the “polyreactivity (PSR sort gate)” value is recorded as “high polyreactivity”.

“QVQLVESGGGLVQAGGSLRLSCAASGLTFGSNTMGWYRQAPGKERELVAAITSNGGSTYYADSVKRRFTISRDYAKNTVYLQMNSLKPEDTAVYYCAARSYDGYYRYYYWGQGTQVTVSS”: the “polyreactivity (PSR sort gate)” value is “low polyreactivity”.

“QVQLVESGGGLVQAGGSLRLSCAASGLTFGTNSMGWYREAPGKEMELVAAISTSSGSTYYADSVKGRFTISRDNAKNTVYLLMNRLKPEDTAVFYCAAVTVTKLSYYRYYYWGQCTQVTVSS”: the “polyreactivity (PSR sort gate)” value is given as “low polyreactivity”.

With “QVQLVESGGGLVQAGGSLRLSCAASGLTFGTYAMGWYRQAPGKERELVAAISGTGGTTYYADSVKGRFTISRDNAKNTVYLKMNSLKPEDTAVYYCNKRWRRPYPYDYWGQGTQVTVSS”, the “polyreactivity (PSR sort gate)” value is on record as “high polyreactivity”.

With “QVQLVESGGGLVQAGGSLRLSCAASGLTFGVNAMGWSRQAPGKERELVAAISGSGGRTNYADSVKGRFTISRDNAKNTVYLQMNSLKPEDTAVYYCNARFPDWALSEISHSTTYGYWGQGTQVTVSS”, the “polyreactivity (PSR sort gate)” value is “low polyreactivity”.

On to “QVQLVESGGGLVQAGGSLRLSCAASGLTFGYNAMGWYRQAPGKERELVAAISSNGGRTYYADSVKGRFTISRDNAKNTVYLQMNSLKPEDTAVYYCNVVYSRSRPYDYWGQGTQVTVSS”, for which the “polyreactivity (PSR sort gate)” value is “high polyreactivity”.

As to “QVQLVESGGGLVQAGGSLRLSCAASGLTFHPYAMGWYRQAPGKERELVAAISSRGTSTYYADSVKGRFTISRDNAKNTVYLQMNSLKPEDTAVYYCAAEVITIGLYRYGYWGQGTQVTVSS”, the “polyreactivity (PSR sort gate)” value is on record as “high polyreactivity”.

For “QVQLVESGGGLVQAGGSLRLSCAASGLTFHRYAMGWYRQAPGKERELVAAINYSGGRTYYADSVKGRFTISRDNAKNTVYLQMNSLKPEDTAVYYCAAPRASGYYWGQGTQVTVSS”, the “polyreactivity (PSR sort gate)” value is “high polyreactivity”.

For “QVQLVESGGGLVQAGGSLRLSCAASGLTFIDYAMGWYRQAPGKERELVAAITKSGGGTYYADSVKGRFTISRDNAKNTVYLQMNSLKPEDTAVYYCAAVYRTRLYYYWGQGTQVTVSS”, the “polyreactivity (PSR sort gate)” value is reported as “high polyreactivity”.

For the sequence “QVQLVESGGGLVQAGGSLRLSCAASGLTFIEYAMGWYRQAPGKERELVAAISSGGRTYYADSVKGRFTISRDNAKNTVYLQMNSLKPEDTAVYYCNARGYRRWYNYWGQGTQVTVSS”, the “polyreactivity (PSR sort gate)” value is “high polyreactivity”.

In the case of “QVQLVESGGGLVQAGGSLRLSCAASGLTFILNAMGWYRQAPGKEREFVAAISRSGVRTYYADSVKGRFTISRDNAKNTVYLQMNSLKPEDTAVYYCARVAPASGVRWYYYWGQGTQVTVSS”, the “polyreactivity (PSR sort gate)” value was “high polyreactivity”.

“QVQLVESGGGLVQAGGSLRLSCAASGLTFIYYAMGWYRQAPGKERELVAGITRRGGSTYYADSVKGRFTISRDNAKNNVYLQMNSLKPEDTAVYYCAKSPVYRFDSWGQGTQVTVSS”: the “polyreactivity (PSR sort gate)” value is “high polyreactivity”.

Regarding “QVQLVESGGGLVQAGGSLRLSCAASGLTFIYYAMGWYRQAPGKEWELVAAISVSGGSTYYADSVKGRFTISRDNAKNTVYLQMNSLKPEDTAVYYCAADWFVHKPRYHSTFDFWGQGTQVTVSS”, the “polyreactivity (PSR sort gate)” value is “low polyreactivity”.

With “QVQLVESGGGLVQAGGSLRLSCAASGLTFKFYDMGWYRQAPVKEREFVAGITSSGGTTYYADSVKGRFTISRDNAKNTVYLQMNSLKPEVTAVYYCAAADIDDGPFDSWGQGTQVNVSS”, the “polyreactivity (PSR sort gate)” value is “low polyreactivity”.

Regarding “QVQLVESGGGLVQAGGSLRLSCAASGLTFKTYAMGWYRQAPGKERELVAAISRSGGSTSYADSVKGRFTISRDNAKNTVYLQMNSLKPEDTAVYYCAAKTYEPRKYEYWGQGTQVTVSS”, the “polyreactivity (PSR sort gate)” value is “high polyreactivity”.

Consider “QVQLVESGGGLVQAGGSLRLSCAASGLTFKVNPMGGYRQAPGKERELVPAISSGDRTYYADSVKGRFTISRDNAKNTVDLQMNSLKPEDTAVYYCNARGHNRYGTLLGFGRVPGYDYWGQGTQVTVSS”, for which the “polyreactivity (PSR sort gate)” value was “low polyreactivity”.

Regarding “QVQLVESGGGLVQAGGSLRLSCAASGLTFKYYAMGWYRQAPGKERELVAAINRSGSSTYYADSVKGRFTISRDNAKNTVYLQMNSLKPEDTAVYYCAKDSFTSTRQYDYWGQGTQVTVSS”, the “polyreactivity (PSR sort gate)” value is recorded as “low polyreactivity”.

Take “QVQLVESGGGLVQAGGSLRLSCAASGLTFMYYAMGWYRQAPGKERELVAAISKGGGSTYYADSVKGRFTISRDNAKNTVYLQMNSLKPEDTAVYYCNADKVTRVTYWDDSWGLGTQVTVSS”: the “polyreactivity (PSR sort gate)” value is given as “high polyreactivity”.

On to “QVQLVESGGGLVQAGGSLRLSCAASGLTFNAYPMGCYRQAPGKEWELVAAITSRGSSTYYADSVKGRFTISRDNAKNTVYLQMNSLKPEDTAVYYCAARQRGYYYSRRYDYWGQGTQVTVSS”, for which the “polyreactivity (PSR sort gate)” value is “high polyreactivity”.

In the case of “QVQLVESGGGLVQAGGSLRLSCAASGLTFNFYAKGWYRQAPGKEREFVAAISRSGGSTHYADSVKGRFTISRDYAKYTVYLQMYSLKPEDTAVYYCAADGGRKNYDYWGQGTQVTVSS”, the “polyreactivity (PSR sort gate)” value is “high polyreactivity”.

For “QVQLVESGGGLVQAGGSLRLSCAASGLTFNPNAMGWYRQAPGKERDLVADITYRGGSTYYADSEKGRFTISRDNAKNTDYLQMYSLKPEDTAVYYCAAQYIGWHLYWYDYWGQGTQVTVSS”, the “polyreactivity (PSR sort gate)” value is on record as “low polyreactivity”.

“QVQLVESGGGLVQAGGSLRLSCAASGLTFNVYAMGWYRQAPGKERELVASITKRGGSTYYADSVKGRFTISRDNAKNTVYLQMNSLKPEDTAVYYCAADGLTGSIYRATGYYWGQGTQVTVSS”: the “polyreactivity (PSR sort gate)” value was “high polyreactivity”.

Regarding “QVQLVESGGGLVQAGGSLRLSCAASGLTFPDNAMGWYRQAPGKERELVAAITIDGSTYYADSVKGRFTISRDNAKNTVYLQMNSLKPEDTSVYYCNALVGVPYAMYYWGQGTQVTVSS”, the “polyreactivity (PSR sort gate)” value is on record as “low polyreactivity”.

On to “QVQLVESGGGLVQAGGSLRLSCAASGLTFPHYTMGWYRQAPGKEREFVARITGSGGRTYYADSVKGRFTISRDNAKNTVDLQRNSLKPEVTGVYYCARDRGYQSGYDYWGQGTQVSVSS”, for which the “polyreactivity (PSR sort gate)” value is “high polyreactivity”.

The record behind these values is the nanobody polyreactivity screen of Harvey et al. (2022).
